What was measured:
KCK-FGF1.E [1] = target: KCK-FGF1.E (UniProt P05230); test: BLI; deglycosylated FGFR1-Fc
T-Fc [2] = test: BLI; deglycosylated FGFR1-Fc
T-Fc [3] = test: BLI
KCK-FGF1.E [4] = target: KCK-FGF1.E (UniProt P05230); test: BLI

koff (KCK-FGF1.E [1])	Kd (T-Fc [2])	koff (T-Fc [2])	Kd (T-Fc [3])	Kd (KCK-FGF1.E [4])	koff (KCK-FGF1.E [4])	Binder
0.00222 s⁻¹	669 pM	0.000448 s⁻¹				de-glycosylated FGFR1-Fc (Fc fusion, N-glycans enzymatically removed with PNGase F) RPSPTLPEQAQPWGAPVEVESFLVHPGDLLQLRCRLRDDVQSINWLRDGVQLAESNRTRITGEEVEVQDSVPADSGLYACVTSSPSGSDTTYFSVNVSDALPSSEDDDDDDDSSSEEKETDNTKPNRMPVAPYWTSPEKMEKKLHAVPAAKTVKFKCPSSGTPNPTLRWLKNGKEFKPDHRIGGYKVRYATWSIIMDSVVPSDKGNYTCIVENEYGSINHTYQLDVVERSPHRPILQAGLPANKTVALGSNVEFMCKVYSDPQPHIQWLKHIEVNGSKIGPDNLPYVQILKTAGVNTTDKEMEVLHLRNVSFEDAGEYTCLAGNSIGLSHHSAWLTVLEALEERPAVMTSPLYLE
			246 pM	3190 pM	0.000304 s⁻¹	Fully glycosylated extracellular domain of FGFR1 fused to the Fc fragment of human IgG1: FGFR1 IIIc (FGFR1-Fc) (Fc fusion, N-glycosylated (fully glycosylated)) RPSPTLPEQAQPWGAPVEVESFLVHPGDLLQLRCRLRDDVQSINWLRDGVQLAESNRTRITGEEVEVQDSVPADSGLYACVTSSPSGSDTTYFSVNVSDALPSSEDDDDDDDSSSEEKETDNTKPNRMPVAPYWTSPEKMEKKLHAVPAAKTVKFKCPSSGTPNPTLRWLKNGKEFKPDHRIGGYKVRYATWSIIMDSVVPSDKGNYTCIVENEYGSINHTYQLDVVERSPHRPILQAGLPANKTVALGSNVEFMCKVYSDPQPHIQWLKHIEVNGSKIGPDNLPYVQILKTAGVNTTDKEMEVLHLRNVSFEDAGEYTCLAGNSIGLSHHSAWLTVLEALEERPAVMTSPLYLE

Source: PMC9368766 (2022)
